Experimental data reported in the DeepSol protein solubility set.

Test: soluble on expression in E. coli; label from the status in PepcDB or PDB records

| Sequence | soluble on expression in E. coli |
| --- | --- |
| MSQTRTHEQVLAKEPWYHGLLPREDMKQLLTQRGDFLVRFTDPKVGEPRKFVLSVYVGVIEDIRHYVIREHNNKFAVDKKWFSSIADLLNYYHRSKEPVAGGPETVIIRPIGREPWEKQHSDVTLIKKLGEGAFGEVQLGEIRIGNTVKKAAIKLAKLESLTKEQIKEIMHEARLMRKFKHPNVVTFYGVAAGQEPLMVIMELADNGALDSYLKKNIGSLPISKKHTMVLQAGLGLEYLHSLQIIHRDIASRNCLYGNGQVKISDFGLSREGYSYRMNPHKKVPIRWLAPEVPRTGFYTPKTDVFAYGVMCWEVYHDGIEPYPGMKVAEVLPRVQNGYRMPFEANVPPAIVRFITYRICAGAEEERVTMSEAVRELLTLEGFDQAPGSNSYFELPDHIPMENIEQPKKIQVSNILPYMSKPVAPPFEPERQEKTQEMRKSMSNSAEEGVKKNRRPVRTRIRNGNSPSPGFKSQSRSAAENQNKSNLKAVQKKKNNKQSSSISGDAPSTFSVLGVFGKKKNTADRSDLKKLEEF | not soluble |
| MWRVCARRAQNVAPWAGLEARWTALQEVPGTPRVTSRSGPAPVRRNSVTTGYGGVRALCGWTPSSGATPRNRLLLQLLGSPGRRYYSLPPHQKVPLPSLSPTMQAGTIARWEKKEGDKINEGDLIAEVETDKATVGFESLEECYMAKILVAEGTRDVPIGAIICITVGKPEDIEAFKNYTLDSSAAPTPQAAPAPTPAATASPPTPSAQAPGSSYPPHMQVLLPALSPTMTMGTVQRWEKKVGEKLSEGDLLAEIETDKATIGFEVQEEGYLAKILVPEGTRDVPLGTPLCIIVEKEADISAFADYRPTEVTDLKPQAPPPTPPPVAAVPPTPQPLAPTPSAPCPATPAGPKGRVFVSPLAKKLAVEKGIDLTQVKGTGPDGRITKKDIDSFVPSKVAPAPAAVVPPTGPGMAPVPTGVFTDIPISNIRRVIAQRLMQSKQTIPHYYLSINVNMGEVLLVRKELNKILEGRSKISVNDFIIKASALACLKVPEANSSWMDTVIRQNHVVDVSVAVSTPAGLITPIVFNAHIKGVETIANDVVSLATKAREGKLQPHEFQGGTFTISNLGMFGIKNFSAIINPPQACILAIGASEDKLVPADNEKGFDVASMMSVTLSCDHRVVDGAVGAQWLAEFRKYLEKPITMLL | soluble |
| MVVKEKVVNEMQEVKEMIDTLVNNGRKALQALESFTQEQIDNIVHEMALAGVDQHMPLAKLAVEETGRGVYEDKCIKNIFATEYIWHSIKKDKTVGIIHEDPHEEIIEIAEPVGVVAGVTPVTNPTSTTMFKALIAIKTRNPIIFAFHPSAQNCSVAAAKTVYDAAVKAGAPKHCIQWIEKPSVEATKQLMNHEGVALVLATGGAGMVKSAYSTGKPALGVGPGNVPCYIEKSAHIKRAVNDLILSKTFDNGMICASEQAIIVDKEIYDDVKTEMITNDCYFVTEEERRKLEKLVINENTCAVNSDIVGKSAQYIAELVGITVPKNTKMLVAEIQGIGAAYPLSREKLSPVLACVKANSLEEGFTYCEEMLNLGGLGHSAVIHSVNKEVQKQFGLRMKACRLIVNAPSSQGGIGDIYNGFIPSLTLGCGSYGKNSVSQNVTATHLLNIKRLANRKKNMQWFKLPPKIYFEKHATAYLANMPNISRAFIVTDPGMVEHGYVDTVAHYLRKHANDVKVEVFFEVEPDPSDETVFKGAEMMRSFQPDVIIALGGGSAMDAAKGMWLFYEYPETTFYGIKQKFLDIRKRTCKYPELGSKAQFVAIPTTSGTGSEVTPFAVITDKKNNIKYPLADYELTPDVAIVDPQFVMTVPPHVTADTGMDVLTHAIEAYVSVLANDYTDGLALKAIDLVFKYLPRAFKDGHDEEAREKMHNASAIAGMAFANAFLGINHSLAHKIGPEFHIPHGRANAILMPHVIRYNAIKPRKHALFPKYEHFVADERYAHIARMLGLPASSVAEGVESLDKAIIDLGKSLNINMSIAGQGVAKDQFEEVVGLLAERAFEDQCTTANPKLPLISELKEIYMKAYKGE | not soluble |
| MSLVTVSDVKQYHFCKAIPWINYVMGYREPSTFSMEEGKKISYEEVVKSLNLTTPVKYEVCLSYNGLSGCIDILAGDRKYTVVEVKAFKRGNFSHFRYQLLAYAYLVRKRLGIVERAILVMEGKKVLEIEPTEEHYRYIENVVKKIEEIVNSEKLPAVNVEKCDFCQYRRICPVSVWSEGHHHHHH | soluble |
| MGSDKIHHHHHHMLNLDFAKRVIIETAKQEWVDSPASGVRRKLLEREEAERGRATSIVEYKPGASFSTHEHPLGEEILVLEGVFSDENGDYPAGTYIRNPPGSSHAPFSKDGCKLLVKLHQFQPTDTQVVRINTHEAEWLPGQGGLEVMPLHSHGTEHVALVKWPANEVFKPHRHLGGEEILVLSGEFCDEHGRYPEGTWMRSPHTSVHHPFVDRETIIWVKTGHLG | not soluble |
| MSDKNQIAARASLIEQLMSKRNFEDLGNHLTELETIYVTKEHLQETDVVRAVYRVLKNCPSVALKKKAKCLLSKWKAVYKQTHSKARNSPKLFPVRGNKEENSGPSHDPSQNETLGICSSNSLSSQDVAKLSEMIVPENRAIQLKPKEEHFGDGDPESTGKRSSELLDPTTPMRTKCIELLYAALTSSSTDQPKADLWQNFAREIEEHVFTLYSKNIKKYKTCIRSKVANLKNPRNSHLQQNLLSGTTSPREFAEMTVMEMANKELKQLRASYTESCIQEHYLPQVIDGTQTNKIKCRRCEKYNCKVTVIDRGTLFLPSWVRNSNPDEQMMTYVICNECGEQWYHSKWVCW | soluble |
| VKNSNGVREKDGKPFRVELYYAGSDTVRRDIAIEFSSQMKKLGLDFPTIASTWDEIETKLGDVSVVLGGGSAPYDLTIMAYEYLHTRTPSTGKWANPGDYGSEKLNALLDQARSEVDVEKRNNLWRKIQAEYVNNPSALNLVNIDHVYVGKKNDWKKPELLLEPHIHGVTWGPWWRISEWTK | not soluble |
| MSSHPLSISSLSPSYSHRPPGAEQHTVVAGRTSKSAREQCVQGQMVIMQPIRAFVDQHFRAFCQSVELYTISYFQMVPMNPELMHYPNQPHMMPGYPMINAYQQSYLQNPAQWTPEMLLCMQMQMQQMVPGTATNSTYMPPQSKNTVTPNATSPLSQISDRDSGNDTISPPLTSQNRYVFLLRGKKKSCAMFECLGGLYFMVQFVSRNT | not soluble |
| ALMITDECINCDVCEPECPNGAISQGDETYVIEPSLCTECVGHYETSQCVEVCPVDAIIKDPSHEETEDELRAKYERITGEG | soluble |
| MAEREFDMTIEEVTIKVAPGLDYKVFGFNGQVPGPLIHVQEGDDVIVNVTNNTSLPHTIHWHGVHQKGTWRSDGVPGVTQQPIEAGDSYTYKFKADRIGTLWYHCHVNVNEHVGVRGMWGPLIVDPKQPLPIEKRVTKDVIMMMSTWESAVADKYGEGGTPMNVADYFSVNAKSFPLTQPLRVKKGDVVKIRFFGAGGGIHAMHSHGHDMLVTHKDGLPLDSPYYADTVLVSPGERYDVIIEADNPGRFIFHDHVDTHVTAGGKHPGGPITVIEYDGVPVDDWYVWKDKDYDPNFFYSESLKQGYGMFDHDGFKGEFEQRQRRPGRKLAAALEHHHHHH | soluble |
| MGSDKIHHHHHHMETLISGKNLKAYYVLDLWGSKKVVKAVDNVSLDILPNEIYGIAGESGCGKSTLLKALLALLDPPLRLMDGELLYNIEGRPTNVTLLKSETIRKLRWSFISYIPQGSMHVLNPVKRVRDTFIEILSSHVKKQTKEFLDLAVQHLKDLGLPERVLNMFPHQLSGGMRQRVTIALATVLKPRVIFADEPTTALDVVAQRAVMQLIRKIQNDLKNTVVLVTHDMGVHAQITTRMAIMYAGKIVEEGPTLEIFKNPLHPYTRYLIQSLPAIGDKKLRSGIPGSPPSLVAPPPGCRFHPRCPHASQRCREEEPLLKEIKPGHKVACFLMEG | not soluble |
| MGSDKIHHHHHHMETLELQGAKLRYHQVGQGPVLIFIPGANGTGNIFLPLAEQLKDHFTVVAVDRRDYGESELTEPLPDSASNPDSDYRVKRDAQDIAELAKSLSDEPVYILGSSSGSIVAMHVLKDYPEVVKKIAFHEPPINTFLPDSTYWKDKNDDIVHQILTEGLEKGMKTFGETLNIAPIDAKMMSQPADTEEGRIEQYKRTMFWSEFEIRQYTHSDITLDDFTKYSDKITLLNGTDSRGSFPQDVNFYINKETGIPIVDIPGGHLGYIQKPEGFADVLLNMWG | not soluble |
| VVTLGYWDIRGLAHAIRLLLEYTETPYQERRYKAGPAPDFDPSDWTNEKEKLGLDFPNLPYLIDGDVKLTQSNAILRYIARKHNMCGETEVEKQRVDVLENHLMDLRMAFARLCYSPDFEKLKPAYLELLPGKLRQLSRFLGSRSWFVGDKLTFVDFLAYDVLDQQRMFVPDCPELQGNLSQFLQRFEALEKISAYMRSGRFMKAPIFWYTALWNNKKE | soluble |
| MKKRALVSVSDKTGVVEFVKGLLEQGIEVISTGGTKKLLEENGLQVIGISEVTGFPEIMDGRVKTLHPNIHGGLLAVRDNETHVAQMNELGMEPIDFVVVNLYPFKETIAKPDVTFADAIENIDIGGPTMIRSAAKNHKFVSVIVDPVDYDVVLAELKENGEVAEETKRKLAAKVFRHTAAYDALISNYLTEQMGEESPETLTVTFEKKQDLRYGENPHQKATFYKAPFAATSSVAYAEQLHGKELSYNNINDADAALSIVKEFTEPAVVAVKHMNPCGVGVGTDIHEAYTRAYEADPVSIFGGIIAANREIDKATAEKLHEIFLEIIIAPSFSKEALEVLQSKKNLRLLTVNIEKATSASKKLTSVQGGLLVQEEDTLSLDESTISIPTKREPSEQEWKDLKLAWKVVKHVKSNAIVLAKDDMTIGVGAGQMNRVGSAKIAITQAGEKAQGSALASDAFFPMPDTVEEAAKAGITAIIQPGGSIRDEDSIKVADTYGIAMVFTGVRHFKH | not soluble |
| MPTPYHLNMAAPLRIQLTPEEDRLLLELSLDPRTHKKTRLWAMMVRLAAEGWTAPKIAQHFHKDRTTVYLVLRRFLREGLQGLAYRKPPGAPRKFTPEMAAFVEERLAEDRVWTAPQLAAALAERFGVRLAPKVVARHLRAMGYVWRRTRYVPLGKPTEEEVKAFAEEEEEAKRGRRRG | soluble |
| MISVMQQMINNDSPEDSKESITSVQQTPFFWPSAAAAIPSIQGESRSERESETGSSPQLAPSSTGMVMPGTAGMYGFGPSRMPTANEFGMMMNPVYTDFYQNPLASTGWYSYGQPYQFTANYSIPSLDGNLSDITIPTTAGSSAATTPNAAMHLPWAISHDGKKKRQPYKKDQISRLEYEYSVNQYLTNKRRSELSAQLMLDEKQVKVWFQVCYRQYSAESLEIINVNFYLMS | not soluble |
| MGSDKIHHHHHHMTNDPIVFQMSVVKNKPQSYRKDKNKDICPFCDVENLTDIYAKDGDIIWLHNKFPTLRDTLQTVLIESSDHNGDISTYTKKYNRKLLRFSLQCFERMNRDDKYQSVVWYKNYGPHSGGSLIHPHMQIVGFKNVDGYKYIHPNNFEGETLFDKDGVEVNVAEHPVQGYTELNINLLNRNSVDLWADWIQSGAKYLLNIMYDGRCDSYNLFFYPRNDEGICAKFITRFDAPPYFVGYKLSQVNDEMTLTKEARRFKEFYDNDSKIK | not soluble |
| MSEDNFDDEFDGSLPSGPRHPMARRFRGYLPVVVDVETGGFNSATDALLEIAATTVGMDEKGFLFPEHTYFFRIEPFEGANIEPAALEFTGIKLDHPLRMAVQEEAALTEIFRGIRKALKANGCKRAILVGHNSSFDLGFLNAAVARTGIKRNPFHPFSSFDTATLAGLAYGQTVLAKACQAAGMEFDNREAHSARYDTEKTAELFCGIVNRWKEMGGWMDDDD | soluble |
| MQVELIIKNLKVYNSYFKKFIKSDVLINEGKFLHIGKGYEDRLWSENIIDGEDKYIIPGLIDIHMHIESSMTIPREFSKAAIKHGVTTVVADPHEIANVFGVRGIEEFIKFKGNLDIFYGILEHHHHHH | not soluble |
| MGSDKIHHHHHHMENAPEPIETVKKGKCKVECQNKERFILIEKENGKAMYHTKIMMDIYKFGVYEKKHEFRLSLRALFNGERIVEETHLYPIKEGDKFIGIFYGYRKPIKKPLIKYQINGTKKAYALARAYYMEFRFKAGSVFCYFKGLYRLLDKKRTNNHYNKVLFSMFTDLEQQVYKFYGKKYPEQGPLIKWILKNLK | not soluble |
